# What was measured:
# Assay in all cases: MST
# Conditions in all cases: MST: 100 nM AF647 oligo (90 C 2 min, cooled) mixed 1:1 with ligand in PBS, RT, 5 min; EMSA: 1 uM AF546 oligo, UV 254 nm 15 min on ice, 4-16% NativePAGE, 0.5x …
# [1] = molecular target: native HDL (DGUC-HDL, apoA-I-containing lipoprotein particle) (Homo sapiens) (UniProt P02647)
# [2] = molecular target: native HDL (DGUC-HDL, apoA-I-containing lipoprotein particle) (Homo sapiens) (UniProt P02647); remark: listed apart in the source
# [3] = molecular target: native HDL (DGUC-HDL, apoA-I-containing lipoprotein particle) (Homo sapiens) (UniProt P02647); remark: listed apart in the source
# [4] = molecular target: native HDL (DGUC-HDL, apoA-I-containing lipoprotein particle) (Homo sapiens) (UniProt P02647); remark: listed apart in the source
# native HDL (DGUC-HDL, apoA-I-containing lipoprotein particle) (Homo sapiens), sequence (P02647 whole entry): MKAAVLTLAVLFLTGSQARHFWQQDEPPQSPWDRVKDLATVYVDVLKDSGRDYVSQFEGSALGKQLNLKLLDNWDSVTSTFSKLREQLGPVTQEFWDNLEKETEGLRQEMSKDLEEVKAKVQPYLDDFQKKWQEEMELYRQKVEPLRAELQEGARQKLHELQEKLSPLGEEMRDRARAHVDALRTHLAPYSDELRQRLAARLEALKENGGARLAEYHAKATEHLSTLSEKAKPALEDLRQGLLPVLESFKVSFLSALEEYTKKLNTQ
Sequence,Kd [1] [µM],Kd [2] [µM],Kd [3] [µM],Kd [4] [µM]
CUGCCACGCGGGAGGCCCGGGUUCGAUUCC [tDR-GlyGCC-3'-tRH-30],0.085,,,
CCGGCUAGCUCAGUCGGUAGAGCAUGAGAC [tDR-LysCTT-30],,3.8,,
GCAUUGGUGGUUCAG [tDR-GlyGCC-5'-tRH-5'tRF-15],0.115,,,
GCGCCGCUGGUGUAGUGGUAUCAUGCAAGA [tDR-GlyCCC-30],,34,,
GCAUUGGUGGUUCAGUGGUAGAAUUCUCGC [tDR-GlyGCC-30 (5'-tRH-30)],0.016,0.259,0.054,0.153
UGGUAGAAUUCUCGC [tDR-GlyGCC-5'-tRH-3'-tRF-15],0.124,,,
GCAUUGGUGGUUCAGUGGUAGAAUUCUCGC / GCGAGAAUUCUACCACUGAACCACCAAUGC [dsRNA-tDR-GlyGCC-30],,,,0.972

# Source: PMC9133651, “Elucidation of physico-chemical principles of high-density lipoprotein–small RNA binding interactions”
